Data taken from the supplement of paper PMC9732359.
± gives the uncertainty stated by the source.

Experiment: protein stability index of a GFP-peptide fusion (yeast GPS) (PSI 1-4); higher = more stable; sorted into four equal gates, so the index is relative within each strain
Summary of the method: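 Sequencing reads from sorted gates were used to score each peptide. The library consisted of tiled 17-residue yeast protein peptides fused downstream of GFP on a Cherry-expressing plasmid, pooled and carried in yeast. Mid-log cultures in leucine-free medium were split into four equal gates by GFP/Cherry ratio, and each gate's plasmids were PCR-amplified and Illumina-sequenced. The protein stability index adds up, over all gates, the read frequency multiplied by the gate number.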

LRQQYEIELKKLPKVYK [SWI1]
protein stability index (doa10∆): 2.04 ± 0.067
protein stability index (pdr5∆): 1.75 ± 0.066
protein stability index (san1∆): 2.22 ± 0.12
protein stability index (ubr1∆): 2.75 ± 0.073

GDVKNMEDVKIQKEEEP [SWI3]
protein stability index (doa10∆): 3.45 ± 0.14
protein stability index (pdr5∆): 3.4 ± 0.2
protein stability index (san1∆): 3.43 ± 0.085
protein stability index (ubr1∆): 3.14 ± 0.12

KNYPEYFLKVTFLKYFG [IRR1]
protein stability index (doa10∆): 1.33 ± 0.085
protein stability index (pdr5∆): 1.54 ± 0.052
protein stability index (san1∆): 1.22 ± 0.14
protein stability index (ubr1∆): 1.49 ± 0.046

AEKKVVRLTSRQRGRIA [RPL17A]
protein stability index (doa10∆): 2.88 ± 0.18
protein stability index (pdr5∆): 1.28 ± 0.074
protein stability index (san1∆): 1.45 ± 0.19
protein stability index (ubr1∆): 1.14 ± 0.093

DFQPTELFDILSTSEDV [IRR1]
protein stability index (doa10∆): 3.04 ± 0.11
protein stability index (pdr5∆): 2.42 ± 0.1
protein stability index (san1∆): 2.82 ± 0.074
protein stability index (ubr1∆): 3.08 ± 0.081

CTKLAVYYSKRGFKVGL [SRP54]
protein stability index (doa10∆): 2.57 ± 0.14
protein stability index (pdr5∆): 2.73 ± 0.13
protein stability index (san1∆): 2.23 ± 0.099
protein stability index (ubr1∆): 2.54 ± 0.06

TVDVSSPTENGVFDPAS [RPL22A]
protein stability index (doa10∆): 3.06 ± 0.054
protein stability index (pdr5∆): 3.17 ± 0.064
protein stability index (san1∆): 2.69 ± 0.057
protein stability index (ubr1∆): 2.87 ± 0.042

DLVRDIDIDKLIQLGVK [SRP72]
protein stability index (san1∆): 2.71 ± 0.15

KINPFGFEQVKIALGSP [RRI2]
protein stability index (doa10∆): 2.65 ± 0.08
protein stability index (pdr5∆): 2.91 ± 0.053
protein stability index (san1∆): 2.77 ± 0.068
protein stability index (ubr1∆): 2.78 ± 0.07

LFGQSQQPQTNTAPGLG [YGR119C/NUP57]
protein stability index (doa10∆): 2.68 ± 0.2
protein stability index (pdr5∆): 2.88 ± 0.27
protein stability index (san1∆): 3.14 ± 0.16
protein stability index (ubr1∆): 2.97 ± 0.092

TLKDYQIKGLQWMVSLF [SNF2]
protein stability index (doa10∆): 3.01 ± 0.1
protein stability index (pdr5∆): 2.54 ± 0.11
protein stability index (san1∆): 3.22 ± 0.078
protein stability index (ubr1∆): 2.76 ± 0.1

PVIDTQIANEFNTQQGI [YDL116W/NUP84]
protein stability index (doa10∆): 2.77 ± 0.051
protein stability index (pdr5∆): 2.99 ± 0.057
protein stability index (san1∆): 2.79 ± 0.042
protein stability index (ubr1∆): 2.95 ± 0.047

VTDLSGKETIARVTGGM [RPS14B]
protein stability index (doa10∆): 3.03 ± 0.087
protein stability index (pdr5∆): 3.09 ± 0.081
protein stability index (san1∆): 2.79 ± 0.055
protein stability index (ubr1∆): 2.9 ± 0.061

LDPYERAIYSYLSGAIP [YDL116W/NUP84]
protein stability index (doa10∆): 2.83 ± 0.12
protein stability index (pdr5∆): 3.11 ± 0.082
protein stability index (san1∆): 3.13 ± 0.098
protein stability index (ubr1∆): 3.11 ± 0.13

LLLSRVRADDLSTRFNI [RRP43]
protein stability index (doa10∆): 3.24 ± 0.091
protein stability index (pdr5∆): 3.07 ± 0.063
protein stability index (san1∆): 3.02 ± 0.06
protein stability index (ubr1∆): 3 ± 0.049

LDNMTYSSVAGTVSRVN [RRP4]
protein stability index (doa10∆): 2.44 ± 0.049
protein stability index (pdr5∆): 2.52 ± 0.05
protein stability index (san1∆): 2.23 ± 0.051
protein stability index (ubr1∆): 2.21 ± 0.036

LLPTNNGQPLNQNFSLT [GRR1]
protein stability index (doa10∆): 3.06 ± 0.058
protein stability index (pdr5∆): 2.95 ± 0.045
protein stability index (san1∆): 2.81 ± 0.045
protein stability index (ubr1∆): 3.02 ± 0.047

ELQKLVHDLNKYKSNTN [SMC2]
protein stability index (doa10∆): 3.15 ± 0.072
protein stability index (pdr5∆): 3.31 ± 0.071
protein stability index (san1∆): 3.41 ± 0.047
protein stability index (ubr1∆): 3.32 ± 0.06

QHPFPLAHSQHRCAIRS [SSN2]
protein stability index (doa10∆): 1.76 ± 0.05
protein stability index (pdr5∆): 1.42 ± 0.042
protein stability index (san1∆): 1.51 ± 0.091
protein stability index (ubr1∆): 1.27 ± 0.034

WDLLPEPIRFLPNQFPL [SWI1]
protein stability index (doa10∆): 2.54 ± 0.059
protein stability index (pdr5∆): 2.58 ± 0.071
protein stability index (san1∆): 2.26 ± 0.054
protein stability index (ubr1∆): 2.31 ± 0.069

KENEESLTPTQSDSAKV [PRP28]
protein stability index (doa10∆): 3.13 ± 0.088
protein stability index (pdr5∆): 3.35 ± 0.063
protein stability index (san1∆): 2.9 ± 0.095
protein stability index (ubr1∆): 3.11 ± 0.053

KKKDPVNQDKANNASQI [SNF12]
protein stability index (doa10∆): 3.02 ± 0.093
protein stability index (pdr5∆): 3.22 ± 0.11
protein stability index (san1∆): 3.19 ± 0.075
protein stability index (ubr1∆): 3.19 ± 0.068

EMGKTDKSTKTAEAPTL [YOR098C/NUP1]
protein stability index (doa10∆): 3.1 ± 0.16
protein stability index (pdr5∆): 3.25 ± 0.15
protein stability index (san1∆): 2.89 ± 0.064
protein stability index (ubr1∆): 2.86 ± 0.14

KIPLPEVHDLIGFITSG [POP1]
protein stability index (pdr5∆): 1.66 ± 0.24
protein stability index (san1∆): 1.88 ± 0.18
protein stability index (ubr1∆): 1.91 ± 0.14

ICYNKKTEYVLNDLNHL [REC8]
protein stability index (doa10∆): 1.8 ± 0.19
protein stability index (pdr5∆): 1.75 ± 0.091
protein stability index (san1∆): 1.68 ± 0.21
protein stability index (ubr1∆): 1.88 ± 0.19

KDRFDIDEKSQFVETIV [RPN2]
protein stability index (doa10∆): 2.15 ± 0.05
protein stability index (pdr5∆): 2.48 ± 0.069
protein stability index (san1∆): 1.93 ± 0.066
protein stability index (ubr1∆): 2.17 ± 0.059

MTPLLVNCLELLINTNF [PCI8]
protein stability index (doa10∆): 1.6 ± 0.037
protein stability index (pdr5∆): 1.6 ± 0.042
protein stability index (san1∆): 1.48 ± 0.078
protein stability index (ubr1∆): 1.42 ± 0.057

ISPLMKSQYNMVLRNVM [SRB8]
protein stability index (doa10∆): 2.32 ± 0.068
protein stability index (pdr5∆): 2.12 ± 0.12
protein stability index (san1∆): 2.79 ± 0.1
protein stability index (ubr1∆): 2.84 ± 0.11

NSAIANEQEEKSEEVKA [RPC37]
protein stability index (doa10∆): 2.61 ± 0.08
protein stability index (pdr5∆): 2.79 ± 0.11
protein stability index (san1∆): 2.61 ± 0.055
protein stability index (ubr1∆): 2.62 ± 0.08

KLGIESKQPNSAIRKCV [RPS23A]
protein stability index (doa10∆): 3.21 ± 0.11
protein stability index (pdr5∆): 3.25 ± 0.12
protein stability index (san1∆): 3.02 ± 0.12
protein stability index (ubr1∆): 3.41 ± 0.054

PNIADYITAKNNVVINF [PRP8]
protein stability index (doa10∆): 2.11 ± 0.087
protein stability index (pdr5∆): 1.26 ± 0.065
protein stability index (san1∆): 1.43 ± 0.28
protein stability index (ubr1∆): 1.26 ± 0.067

ALDGDLIELLEKLDVSR [YCG1]
protein stability index (doa10∆): 3.27 ± 0.25
protein stability index (pdr5∆): 3.42 ± 0.2
protein stability index (san1∆): 3.16 ± 0.13
protein stability index (ubr1∆): 2.73 ± 0.2

KNHTHNLPGNITVVLGV [RRP4]
protein stability index (doa10∆): 2.3 ± 0.14
protein stability index (pdr5∆): 2.68 ± 0.084
protein stability index (san1∆): 2.32 ± 0.17
protein stability index (ubr1∆): 2.66 ± 0.078

NNLFRIIAELSFLKVDP [YJL039C/NUP192]
protein stability index (doa10∆): 3.08 ± 0.054
protein stability index (pdr5∆): 3.02 ± 0.12
protein stability index (san1∆): 3.24 ± 0.093
protein stability index (ubr1∆): 3.07 ± 0.086

SGNNYNDINISSIENNI [MED2]
protein stability index (doa10∆): 3.01 ± 0.039
protein stability index (pdr5∆): 3.02 ± 0.036
protein stability index (san1∆): 2.89 ± 0.032
protein stability index (ubr1∆): 3.151 ± 0.031

LESEAQKKATMSAEEAL [RPC34]
protein stability index (doa10∆): 3.13 ± 0.096
protein stability index (pdr5∆): 3.26 ± 0.14
protein stability index (san1∆): 3.04 ± 0.092
protein stability index (ubr1∆): 3.58 ± 0.12

ETISKLNEYKRETLVKT [SMC2]
protein stability index (doa10∆): 2.02 ± 0.059
protein stability index (pdr5∆): 1.99 ± 0.046
protein stability index (san1∆): 2.19 ± 0.062
protein stability index (ubr1∆): 2.57 ± 0.034

TEDGWIYHGNHDVGELF [PRE2]
protein stability index (doa10∆): 2.05 ± 0.057
protein stability index (pdr5∆): 1.84 ± 0.049
protein stability index (san1∆): 2 ± 0.074
protein stability index (ubr1∆): 2.33 ± 0.043

YSAAKKIPDTYTANTSA [YAR002W/NUP60]
protein stability index (doa10∆): 2.43 ± 0.11
protein stability index (pdr5∆): 2.19 ± 0.082
protein stability index (san1∆): 2.2 ± 0.077
protein stability index (ubr1∆): 2.55 ± 0.038

KLEKLRNEKRMFLEFQS [SMC2]
protein stability index (doa10∆): 2.88 ± 0.13
protein stability index (pdr5∆): 3.3 ± 0.08
protein stability index (san1∆): 3.15 ± 0.12
protein stability index (ubr1∆): 3.49 ± 0.092

MFNNHEIDTILSTLRME [RPN9]
protein stability index (pdr5∆): 3.51 ± 0.2
protein stability index (san1∆): 2.84 ± 0.13
protein stability index (ubr1∆): 3.03 ± 0.071

TTEMLDKLMVTSIRSTP [MED6]
protein stability index (doa10∆): 2.27 ± 0.14
protein stability index (pdr5∆): 2.45 ± 0.12
protein stability index (san1∆): 2.81 ± 0.27
protein stability index (ubr1∆): 2.53 ± 0.089

TTSRFSKQVTDYYQSIY [FAS2]
protein stability index (doa10∆): 2.77 ± 0.056
protein stability index (pdr5∆): 2.87 ± 0.071
protein stability index (san1∆): 2.47 ± 0.089
protein stability index (ubr1∆): 2.59 ± 0.05

PSQFGMLCTADTPEGEA [RET1]
protein stability index (pdr5∆): 1.7 ± 0.23
protein stability index (san1∆): 2.58 ± 0.22

TMEVKSFPILDQCVGQV [YMR129W/POM152]
protein stability index (doa10∆): 2.19 ± 0.09
protein stability index (pdr5∆): 3.08 ± 0.11
protein stability index (san1∆): 2.34 ± 0.13
protein stability index (ubr1∆): 2.69 ± 0.06

KISEDPVKALNECIAST [SNF12]
protein stability index (doa10∆): 2.37 ± 0.17
protein stability index (pdr5∆): 2.86 ± 0.12
protein stability index (san1∆): 2.62 ± 0.068
protein stability index (ubr1∆): 2.82 ± 0.097

NKYPELLGKDNEDDALI [AAR2]
protein stability index (doa10∆): 3.33 ± 0.1
protein stability index (pdr5∆): 3.19 ± 0.089
protein stability index (san1∆): 3.33 ± 0.051
protein stability index (ubr1∆): 3.02 ± 0.11

QLIAKNVANVSGSTEKA [SIR3]
protein stability index (doa10∆): 3.03 ± 0.085
protein stability index (pdr5∆): 3.04 ± 0.07
protein stability index (san1∆): 3.1 ± 0.054
protein stability index (ubr1∆): 2.88 ± 0.061

ETFSTSAHQSPIMQTQM [SNF2]
protein stability index (doa10∆): 3.17 ± 0.077
protein stability index (pdr5∆): 2.8 ± 0.072
protein stability index (san1∆): 3.28 ± 0.062
protein stability index (ubr1∆): 3.15 ± 0.04

LASKIKQYERLRFYKDT [RRI1]
protein stability index (doa10∆): 2.63 ± 0.068
protein stability index (pdr5∆): 2.52 ± 0.062
protein stability index (san1∆): 1.97 ± 0.077
protein stability index (ubr1∆): 2.19 ± 0.08

KEIRAFDKLLNIPRREL [SRB4]
protein stability index (doa10∆): 2.6 ± 0.08
protein stability index (pdr5∆): 2.46 ± 0.07
protein stability index (san1∆): 2.73 ± 0.08
protein stability index (ubr1∆): 1.95 ± 0.071

PYKYRLREEIFIANEGV [RPL2A]
protein stability index (doa10∆): 2.88 ± 0.096
protein stability index (pdr5∆): 2.94 ± 0.085
protein stability index (san1∆): 2.29 ± 0.067
protein stability index (ubr1∆): 2.86 ± 0.054
